Experimental data from article PMC8560819, “Dynamic interactions and Ca^2+-binding modulate the holdase-type chaperone activity of S100B preventing tau aggregation and seeding” (Nature Communications, 2021).

B1: S100B (natural protein)
chain: MSELEKAMVALIDVFHQYSGREGDKHKLKKSELKELINNELSHFLEEIKEQEVVDKVMETLDNDGDGECDFQEFMAFVAMVTTACHEFFEHE
notes: the crystal structure PDB 2H61 and the assignment BMRB 27199 were used for it; Used unlabelled or uniformly 15N-labelled (M9 medium with 15N-ammonium chloride); also called S100B-Ca^2+; apo S100B

How the values were obtained:
S100B = biological target: B1; experiment: NMR titration; 100 µM 15N-S100B titrated with 50 to 750 µM tau peptide; 50 mM Hepes pH 6.8, 1.25 mM CaCl2, 298 K; Kd from chemical shift perturbation of 11 resonances; details: both partners purified
[1] = biological target: the molecule itself; experiment: SEC-SAXS; Superdex 200 (3.2/300), 50 mM Tris-HCl, 100 mM NaCl, 2% glycerol, 2 mM CaCl2, pH 7.9; S100B alone, S100B mixed with equimolar K18, or K18 alone, 12–13 mg/ml

Row | Binder | Kd (S100B) [µM] | stoichiometry N [1]
1 | Ac-PGGGKVQIINKK-NH2 (12-residue tau peptide within K18 that holds PHF6* (275-VQIINK-280); source: synthetic peptide, bought: Genecust (France)) [R2 peptide] | 163 | 
2 | Ac-PGGGSVQIVYKP-NH2 (12-residue tau peptide within K18 that holds PHF6 (306-VQIVYK-311); source: synthetic peptide, bought: Genecust (France)) [R3 peptide] | 266 | 
3 | B1 |  | 2
4 | Ac-REPKKVAVVRTP-NH2 (12-residue tau peptide from the proline-rich region, holds Thr231; also called RO; source: synthetic peptide, bought: Genecust (France)) [R0 peptide] | 519 | 
